First the molecules themselves.
B1: HDV Ribozyme (parent)
chain: GGCCGGCAUGGUCCCAGCCUCCUCGCUGGCGCCGGCUGGGCAACAUUCCGAGGGGACCGUCCCCUCGGUAAUGGCGAAUGGGACCCA

The data set covers variants of B1. Kind of data set: self-cleavage, relative activity (ratio to wild type); higher = more cleavage; co-transcriptional.
GGCCGGCAUGGUCCCAGCCUCCUCGCUGGCGCCGGCUGGGCAACAUUCCGAGUGGACCGUCCCCUCGGUAAUGGCGAAUAGGACCCA [G53U G80A]: the self-cleavage stood at 0.419.

GGCCGGCAUGGUCCCAGCCUCCUCGCUGGCGCCGGCUGGGCUACAUUCCGAGGGGACCGUCCCCUCGGUAAUGGCGAACGGGACCCA [A42U U79C]: the self-cleavage was 0.0216.

Turning to CGCCGGCAUAGUCCCAGCCUCCUCGCUGGCGCCGGCUGGGCAACAUUCCGAGGGGACCGUCCCCUCGGUAAUGGCGAAUGGGACCCA [G1C G10A], the self-cleavage came out at 0.166.

For GGCCGGCAUGGUCCCAGCCUCCUCGCUGGAGCCGGCUGGGCAACACUCCGAGGGGACCGUCCCCUCGGUAAUGGCGAAUGGGACCCA [C30A U46C], the self-cleavage amounted to 0.237.

As for GGCCGGCAUGGUCCCAGCCUCCUCUCUGGCGCCGGCUGGGCAACAUUCCGAGGGGACCGUCCCCUCGGUAAUGGCGAAUGGUACCCA [G25U G82U], the self-cleavage came out at 0.0252.

Consider UGCCGGCAUGGUCCCAGCCUCCUCGUUGGCGCCGGCUGGGCAACAUUCCGAGGGGACCGUCCCCUCGGUAAUGGCGAAUGGGACCCA [G1U C26U], for which the self-cleavage was determined as 0.222.

For the variant GGCCGGCAUGGUCCCAGCUUACUCGCUGGCGCCGGCUGGGCAACAUUCCGAGGGGACCGUCCCCUCGGUAAUGGCGAAUGGGACCCA [C19U C21A], the self-cleavage stood at 0.0573.

Consider GGCCGGCAUGGUCCCAGCCUCCUCGCUGGCGCCGGCUGGGCAACAGUCCGAGGGGACUGUCCCCUCGGUAAUGGCGAAUGGGACCCA [U46G C58U], for which the self-cleavage worked out at 0.532.

As to GGCCGACAUGGUCCCAGCCUCCUCGCUGGCGCCGGCUGGGCAACACUCCGAGGGGACCGUCCCCUCGGUAAUGGCGAAUGGGACCCA [G6A U46C], the self-cleavage is 0.508.

On to GGCCGGCAUGGUCCCAGCCUCCUCGCUGGCGCCGGCUGGGCAACAUUCCGAGGGGACCGUCCACUCGGUUAUGGCGAAUGGGACCCA [C63A A70U], for which the self-cleavage turned out to be 0.812.

Take GGCCGGCAUGGUCCCAGCCUCCUCGCUGGCGCCGGCUGGGCAACAUUCCGAGGGGACCGUCCCCUCCGUAAUGGCGAAUGGGAGCCA [G67C C84G]: the self-cleavage is 0.499.

Consider GGCCUGCAUGGUCCCAGCCUCCUCGCUGACGCCGGCUGGGCAACAUUCCGAGGGGACCGUCCCCUCGGUAAUGGCGAAUGGGACCCA [G5U G29A], for which the self-cleavage amounted to 0.285.

Take GGCCGGCAUGGUCUCAGCCCCCUCGCUGGCGCCGGCUGGGCAACAUUCCGAGGGGACCGUCCCCUCGGUAAUGGCGAAUGGGACCCA [C14U U20C]: the self-cleavage amounted to 0.133.

For GGCCGGCAUGGUCCCAGCCUCCUCGCUGGCGCCGGCUGGGCAACAUUCCGAGGGGACCGUCCCCUCGGUAAUGGCGAAUGGUACCCC [G82U A87C], the self-cleavage turned out to be 0.406.

GGCCGGCAUGUUCCCAGCCUCCUCGCUGGCGCCGGCUGGGCAACAUUCCGAGGGGACCGUCCCCUCGGUAAUGGCGAAUGGGACACA [G11U C85A]: the self-cleavage is 0.755.

As for GGCCGGCAUGGUCCCAGCCUCCUCGCCGGCGCCGGCUGGGCAACAUUCCGAGGGGACCGUCCCCUCGGUAAUGGCGAAUGGGACCCG [U27C A87G], the self-cleavage was 0.497.

In the case of GGCCGGCAUGGUCCCAGCCUCCUCGCUGGCGCCGGCUGGGCAACAUUCCGAGGGGACCGUCACCUCGGUAAUGGCUAAUGGGACCCA [C62A G76U], the self-cleavage was found to be 1.08.

GGCCGGCAUGGUCCCAGCCUCCUCGCUGGCGCCGGCUGGGCAACAUUCCGAGGGGACCGUCCCCUCGGUAAUGGCGAAAUGGACCCA [U79A G80U]: the self-cleavage is 0.148.

In the case of GGCCGGCAUGGUCCCAGCCUCCUCGCUGGCGCCGGCUGGGCAACACUCCGAGGAGACCGUCCCCUCGGUAAUGGCGAAUGGGACCCA [U46C G54A], the self-cleavage came to 0.519.

With GGCCGGCAUGGUCCCAGCCUGCUCGCUGGCGCCGGCUGGGCAACAUUCCGAGGGGACCGUCCCCUCGGUAAUGACGAAUGGGACCCA [C21G G74A], the self-cleavage was 0.0511.

Regarding GGCCGGCAUGGUCCCAGCGUCCUCGCUGGCGCCGGCUGCGCAACAUUCCGAGGGGACCGUCCCCUCGGUAAUGGCGAAUGGGACCCA [C19G G39C], the self-cleavage came to 0.0978.

Take GGCCGGCAUGGUCCCAGCCCCCUCGCUGGCGCCGGCUGGGCAACAUUCCGAUGGGACCGUCCCCUCGGUAAUGGCGAAUGGGACCCA [U20C G52U]: the self-cleavage was 0.145.

For GGCCGGCUUGGUCCCAGCCUCCUGGCUGGCGCCGGCUGGGCAACAUUCCGAGGGGACCGUCCCCUCGGUAAUGGCGAAUGGGACCCA [A8U C24G], the self-cleavage was determined as 0.0405.

On to GGCCGUCAUGGUCCCAGCCUCCUCGCUGGCGCCGGCCGGGCAACAUUCCGAGGGGACCGUCCCCUCGGUAAUGGCGAAUGGGACCCA [G6U U37C], for which the self-cleavage was determined as 0.943.

Regarding GGCCGGCAUGGUCCCAGGCUCCUCGCUGGCGCCGGCUGGGCAACAUUCGGAGGGGACCGUCCCCUCGGUAAUGGCGAAUGGGACCCA [C18G C49G], the self-cleavage turned out to be 0.0723.

Consider GGCCGGCAUGGUCCCAGCCUCCUCGCUGGCGCCGGCUGGGCAACAUCCCGAGGGGACCGUCCCGUCGGUAAUGGCGAAUGGGACCCA [U47C C64G], for which the self-cleavage was determined as 0.511.

Regarding GGCCGGCACGGUCCCAGCCUCCUCGCGGGCGCCGGCUGGGCAACAUUCCGAGGGGACCGUCCCCUCGGUAAUGGCGAAUGGGACCCA [U9C U27G], the self-cleavage came to 0.914.

On to GGCCGGCAUGGUCCCAGCCUCCUGGCUGGCGCCGGCUGGGCAAUAUUCCGAGGGGACCGUCCCCUCGGUAAUGGCGAAUGGGACCCA [C24G C44U], for which the self-cleavage was 0.0978.

In the case of GGCCGGCAUGGUCCCAGCCUCCUCGCUGGCGCCGUCUGGGCAACAUUCCGAGGCGACCGUCCCCUCGGUAAUGGCGAAUGGGACCCA [G35U G54C], the self-cleavage was found to be 0.517.

On to GGGCGGCAUGGUCCCAGCCUCCUCUCUGGCGCCGGCUGGGCAACAUUCCGAGGGGACCGUCCCCUCGGUAAUGGCGAAUGGGACCCA [C3G G25U], for which the self-cleavage is 0.0277.

On to GGCCGGCAUGGUCUCAGCCUCCUCGCUGGCGCCCGCUGGGCAACAUUCCGAGGGGACCGUCCCCUCGGUAAUGGCGAAUGGGACCCA [C14U G34C], for which the self-cleavage was found to be 0.172.

Take GGCCGGCAUGGUCCCAGCCUCCUCGCUGGCGCCGGCUGGGCAACAUUCCGAGGGGACCGUCCUCUCGGUAAUGGCGAAUGGGGCCCA [C63U A83G]: the self-cleavage amounted to 0.653.

The values are drawn from the RNAGym collection of RNA variant scans (doi:10.7554/elife.80360).
